Test results as given in the supplement of paper PMC12636428.

System: Saccharomyces cerevisiae
Test: transcriptional activation domain activity (GFP:mCherry ratio, weighted mean of sorted bins, harmonized to initial dataset scale) (arbitrary fluorescence ratio units); higher = stronger transcriptional activation
Conditions: beta-estradiol 1 µM; induction time 4 h
How it was run: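 Yeast diploids with a GFP reporter received barcoded protein tiles, fused to an estradiol-inducible synthetic transcription factor, at the URA3 locus. Cultures were diluted 1:5 into SC holding 1 uM beta-estradiol, incubated 4 hours at 30 °C, sorted into 8 bins on GFP:mCherry ratio, and sequenced for barcodes, with tiles under 50 reads discarded. Activation activity values come from the read-weighted mean of bin median fluorescence, averaged across barcodes and linearly placed on the initial dataset scale.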

Compared with “ITFLFIFFFYFFTYSFFYISFFRTCFPEFAHQMFEMVLLWNLFLLFVFCLFFF”, “IPSLLSLSFYCLGFLSFAISSFSFPSFPLYHYPLCLGFLYSAGWLVGGYLWLY” is higher in “transcriptional activation domain activity” value: 57600 for the first, 77000 for the second.

Compared with “LREVYLLSLFYRIKIRFLEAGFNRLKNLIKLDTRYYIVSFTYIVLELLKAKML”, “RTTALGVWFLSIQFFWYALYGALYIWFFFMPWEKLSVLLAFDYFMRLLLCFMF” is lower in “transcriptional activation domain activity” value: 63300 for the first, 45700 for the second.

First: IIFLIMRAMVGLQVLNENVIEKILMYLKLQWVAVFIYWQVLWLVKFSLLIFFK
Second: SDSQKSGKIWGLCCTDSFGCLDLIIGLDLSDVLLVIQWRSTCDMCTLWQRLGH
The “transcriptional activation domain activity” value of the first is higher: 75400 for the first, 53500 for the second.

Going from “AASFISRTMLVLARQKFYNWYGVPQRRLYRDQSVHGTTKKRTWLIKLLSPLLF” to “FVGIRDRTTFLLFTSAWTVVFSLLFVLLFMHSASTGSPLTSVASHFVVFLLTW”, the “transcriptional activation domain activity” value rises from 47200 to 56900.

Going from “HKWIIPTPFASHAFHPVDGYLQSVPYHLFVFIFPLHRILYLVLFVLINFWTIF” to “WLSHSKKKTCDVCKHPYSFTKVYAEDMPSRLPLVLLLRKLIEQVFYTALFCIR”, the “transcriptional activation domain activity” value falls from 62300 to 54100.

Compared with “MVICFHSLFLQLTTCVLDLYLHYGFLVLFLFLFFIFFPASYFSAYFFFFFIFC”, “MLQLWWLCVVFCVICFLCEWFRLGVVPPFLAATTLLQLFYFFYLLTFFCRVCA” is higher in “transcriptional activation domain activity” value: 35900 for the first, 50700 for the second.

Compared with “EREILWRAYLRLIKHVNSIFKIRIAYEWTEDYVIKYLWSAAGYCLISIPILFT”, “MLILLLLLLLLLLLLLLLIMIMIMILMIFLLLFMILIFLLVIMREFCWLWVLW” is lower in “transcriptional activation domain activity” value: 77100 for the first, 44900 for the second.

First: PDRPCYSAIVRISTSRLHFYECKLYAHAFFQGLRYFMYHWRWTTTLVLMSLFL
Second: ADSGDEYVQDRRDGPAKGGKAPRREKDGRDEEGGRKKAAKKRKRKVQAQPEID
The “transcriptional activation domain activity” value of the first is higher: 47200 for the first, 30100 for the second.

First: ITPYPVLLSGEDTSSKISRMRKVLRDRARTDNWIYLIPTLSTLAWLFNYRCRT
Second: FFLKVYLLNPMHMTRFADLLYQGAILNRVFQPYESHLQYLLQWMCDYNLYGCA
The “transcriptional activation domain activity” value of the first is higher: 66100 for the first, 46700 for the second.

Going from “KGGKRKRREEDDGEEKDSFGGRRGDDGPSRIAKNEGGDGRAGKHKRSGDDGKE” to “RYPPKHILISQSLILILLCFHLSFVWNKEFAPFNIESRTLFICFLGYLPILLL”, the “transcriptional activation domain activity” value rises from 31100 to 36900.

First: VVGISCCFLCMIVILLYFFPLLLFSSLRPLIYLVELLPLTCHIALGGSLYLTL
Second: LSSFALLSSGYFLDVFFLFFCFFVFFVFPFLFLLSTVNTHAIFFFFLSFSFVI
The “transcriptional activation domain activity” value of the first is higher: 77600 for the first, 60300 for the second.

First: RLFGRGQWTLGRVIFFVFFYFNVAPLMLGVSMVCWFMVFWIPMGRVTLILFYH
Second: RHLAEAGLGIAAAGAAKELYDHRRRSRSRSSDSSRSRSRSQSHTGRHVAAAAL
The “transcriptional activation domain activity” value of the first is higher: 85300 for the first, 45800 for the second.

Compared with “KDDRDDRDRRGGDDRREDREERRGGEDRGEDRGGEGRRDSRQEGGANREPSPS”, “GGEGRGGHPAACRGGCFARYPFTPSFLLYFLLLFFYRGVHVPISFFFLFLFLF” is higher in “transcriptional activation domain activity” value: 23700 for the first, 46500 for the second.

Going from “KQYCVRPNSGRIDPGKEVEVQVLLQAMKEDPPLDAKCRDKFLVQSVAVSADKE” to “MVLLCAYERVGLGRSIGFGIFFFLPLFLLLLLTHFSFLFFFFAFTFILMMACL”, the “transcriptional activation domain activity” value falls from 64500 to 57800.

First: MKQHEYFHLGINLFCPPFFILKSYKEAILSLLLAFKILEIWTFFFIFPLFFLF
Second: AVRAATSVLCKEMLRPGQSASLGLREAEEVECRMRALARLERVWVKTGASTNG
The “transcriptional activation domain activity” value of the first is lower: 47800 for the first, 54900 for the second.

Going from “YIQDIQCLQFENGGVGRMELEAKHWMIYHGILLAKILRLLEDSPLKRFTIVNA” to “MYNNIHIPFFVLFLFFFFLSLFFFFFSLIFFFSFYCILTLCWYAFCLFFLKKN”, the “transcriptional activation domain activity” value falls from 47800 to 34700.

Compared with “NTLSRTKAYMTFILAFVAITSIVRFTGSTLYLIARFLLGKRAWITYLIYVYLY”, “MQYVANATPVTCDYDGFDGSGMLVIPNIAIYLSATSGLACIIKCFEILWWYMA” is higher in “transcriptional activation domain activity” value: 52700 for the first, 65000 for the second.

Compared with “LFSFLFPLLLFFSHSFFFYPFLCPLLLPPSLSFYLPLSLSSLSPIPCICFFSD”, “RQAAMPKRKSPEEEDEEDEEEAPAKPAAKKAKTATAANGEKKSAGRGRPKKAA” is lower in “transcriptional activation domain activity” value: 63200 for the first, 31700 for the second.

Compared with “HSLSTIGIDVSHWEPFPLASMQRALAYELHMFCPTLRTVIVWLRRYRYMWRWS”, “IMMFPMFIALSILYAMVYLGVLFSFFSVLFFFSVVYFLEPGGLCILDVFFYYY” is higher in “transcriptional activation domain activity” value: 45200 for the first, 68000 for the second.

Compared with “TISYLILAGSDYFEWCYLSIYQYSTLCNSSLLDVWRDIQYLWILIMFIWNILP”, “TGAFGATANTGSAFGQRPAFGSPAPTGFGAAQPAATGFGGGGAFGAGANNTTS” is lower in “transcriptional activation domain activity” value: 52100 for the first, 22300 for the second.

Going from “SEAESEAEAEAEEATEPEVSQEKPKRGRKKKEVEVEIKEKPSRKPAGRPKKEK” to “TRQYIINILFGIMTVENFDLEDIIYFYMFIARNLPKYPQHIMLPGTSLHQVLV”, the “transcriptional activation domain activity” value rises from 12300 to 54100.

Going from “MMACLVSGIGWCLLYFTCMYLLLIYYILSLFYPPLASCNSFSFFFLSFFFFAG” to “GSEDESEGSEDESSEDEEDEEKALDKKMEIQDQTNTNLVNLRKTIYLTIMSSI”, the “transcriptional activation domain activity” value falls from 67200 to 43400.

Compared with “VWVCGFLVVYLFYTWGVLSFVFFQMLINHLSFINLFFFYILSSFIGGLTLNFF”, “TPYWVLWNLRSSYGPVWQFLLKWIPFNMLLHRYYHCVKMELGYLFIFGNDFLR” is higher in “transcriptional activation domain activity” value: 51200 for the first, 56300 for the second.

Compared with “ELGLGSWWVFIVLGHTSVLLELAPRYSFALYFLPVFLLTVTVVSFFFAFVLYL”, “ADPNGAAAATTAAAPEKKAEEPVTPAKSSAAPASTSSTPASTNTTEKKKKNRL” is lower in “transcriptional activation domain activity” value: 41100 for the first, 34700 for the second.

Compared with “MKTINILTTPPLHIFFSTPIVYSLFLLLNFFPIFFFFFFFFLYSLPFFFFIVA”, “WSHPLRMTYFLVLVFFSCTWVGGVLRRGWGYLVLNAFCRHSYICGVCCIHYLS” is lower in “transcriptional activation domain activity” value: 52100 for the first, 18800 for the second.

First: KKSVLQLLAWLMHYKLYPTRNYKAICNCLPKLFENPLWAEFCSKMADTMVKYN
Second: DAGSGGGEVRRAGGSGILKESGTFGDCRCLSRYASAASLRVHVLLCWENALSA
The “transcriptional activation domain activity” value of the first is higher: 46300 for the first, 40400 for the second.

Going from “SGWQRHIILHESLLNRYEHVIIVFVKSHLPSAGLLLKQFCVSGRILARMWRNG” to “AGQILANQVIITNLTNFIYSITPLPVRYYYLLEMLKFIFFLFMLGMLPLALCA”, the “transcriptional activation domain activity” value rises from 47800 to 52400.

First: MHPILSCLVSIVCPIMHILLLAVLLFLNTLSRLILAFTYTTFSLFVFSVQLTP
Second: MGFKDFPFVDFAVFFFFFFSPFFSSMFILSFIYLFWFDLGIGLVGVLLFFFCH
The “transcriptional activation domain activity” value of the first is higher: 71500 for the first, 47500 for the second.

Compared with “KLYQLKLKIFLYWQRYSYLYAKRKHSTKHHTLLVWSLKVKKLYGILWCFLLLF”, “MKVFCSSFPFSNPILFYFSLLQIIFDYWLYNFMGSFYFWLPLAPFFFFFFLVL” is higher in “transcriptional activation domain activity” value: 36600 for the first, 47500 for the second.

Going from “DARRLLSCVRMGFAFYASGCMSTSLILFFSFCLLLPPILTGYQILWLLCIILP” to “MGFKTSMGWICLSQVSFFDCNLLYCVVFFIFSSKSLATSPFLSLVLLFSLYPL”, the “transcriptional activation domain activity” value falls from 68400 to 29200.

First: MLSLRQCYLVLCTLLIITGVGLASTIFIPVNPFYQLLLMENVAFPWIHFILFC
Second: EARTLVMHAQQGFSFHFGCQMSLSGMMLLSYILLLPPIFTGYQLLWLLWIVFP
The “transcriptional activation domain activity” value of the first is lower: 49900 for the first, 61400 for the second.

First: IRGKTLPKYFPRFHMWGHIDADIQLMSKGLITPVCIEMVYGMHPFVVYKLFMF
Second: LNRAARRSTPASRTRREGAIGARVRRRERESERARARTKMGRRSCLRVSAAAT
The “transcriptional activation domain activity” value of the first is higher: 62100 for the first, 61600 for the second.

Going from “ATIAPPQLELVTDPQLSMDSFLEMIRVFTVPGKCFFDALAADSTDASCTEESL” to “MGLNLLVCIILVLHYFSTLLISFYFLLTVHTFRHIFAHSHSPVCMCLIFLTII”, the “transcriptional activation domain activity” value falls from 95400 to 50200.

First: MCVVFFPVLLLWRLLFRSFSFLPVCIVSPVTRFFFLSFFPSQSIVSNSFILPA
Second: MSATEATAVPAPAEEVKVVETPAVDPVPEAPAAEESAPATEVKKEERPKSPSL
The “transcriptional activation domain activity” value of the first is lower: 29800 for the first, 54600 for the second.

First: GSNIQWLVTKWREMGCRKGPIELTKFLTGLLCVNPFSLTPEKGARLLIKLLSI
Second: MWEVLWAFSFLAGDIFVFFLSLALYIYPNHLVSPLLPGCVKPPVGMYWFLVFQ
The “transcriptional activation domain activity” value of the first is higher: 62200 for the first, 44000 for the second.

Going from “RLSSSSKSKRSLRHPQRALCSSRAWEEDGGGNPNGGRGFVVRIRRFGRARLHS” to “YKCVGLSPDCKTAFFMNVTAFLVCPLANFESGKIPKTDLILLSKSSRECKYKA”, the “transcriptional activation domain activity” value falls from 62500 to 29600.

Going from “KQYCVRPNSGRIEGGGEVEVQVLLQAMKEDPPLDAKCKDKFLVQSVAVAADRE” to “MPVLPKSSSTKRAGAPKAKGAVRAKSGCYTCRIRRKKCDENPDDAGQCQTCVR”, the “transcriptional activation domain activity” value falls from 46900 to 36600.

Compared with “DFFLGERDLLQETVSEEWLQFFDDGDLDQILDFLIFFKNPESLHPPSSLVDFI”, “MSHPYRGERVHLQVGQNIWIVALIVLVQIFSTVRSNPGCSLLVSMTAKFWCPR” is lower in “transcriptional activation domain activity” value: 158000 for the first, 63800 for the second.

First: ERSLGGGSLYTGKAVHTDPEMSEVHATEYTRGRLRKFLCLAFGEVASVLRLDK
Second: LRAEGLFQCNYLSYFIELTRYTFLFSMFLILLRSGWFGTSGLFLGMLWHQLVF
The “transcriptional activation domain activity” value of the first is lower: 16600 for the first, 37500 for the second.

Going from “LTKKALDRLLGGDLSSLVAATISVSDWILDVAISSHDRISCILVTAHNTVLQA” to “ERLPVDLAVVCTIVERLFGLAVMTARLRKLGSLHGVLLPRTWVLALWRDFIRF”, the “transcriptional activation domain activity” value rises from 35700 to 67500.

Going from “RCFSFLFLGCHYDTDWGFGFCCLFVINCRFNFCIFFLSLFSSFFVLVSFFLLY” to “IIQKLCFITVKLFFTKYIPLQAILINLILIGYLMFVVRHFPYRYTTLNNLELI”, the “transcriptional activation domain activity” value falls from 58800 to 55000.

In the case of “MPTDHASDTPSLGESSNQGAHKGYGRACLQCRQKKRKCRPSETKPDLCLLCEK”, the “transcriptional activation domain activity” value is reported as 40000.
